{"source": "patent US20160166666A1", "about": "“TUMOR ANTIGEN PEPTIDE” (Sumitomo Dainippon Pharma Co., Ltd., priority 2013, published 2016)", "binders": {"B1": {"name": "Peptide represented by SEQ ID No: 11, OR7C1 V126I (117-126) (peptide)", "peptide": "VMAYDRFVAI", "notes": "Synthetic peptide, Fmoc method"}}, "key": {"HLA-A*02:01 on T2 cells": {"biological_target": "T1, HLA-A*02:01 on T2 cells (human, UniProt P04439 25-302 at identity 0.94))", "T1 construct": "whole, on cells; Empty MHC class I on the cell surface that is stabilized by an added peptide; the text gives HLA-A*02:01", "T1 MHC heavy": "not shown", "test": "MHC class I expression stabilization test on T2 cells as in Example 2, flow cytometry"}, "[1]": {"biological_target": "T2, HLA-A*24:02 on T2-A24 cells (human, UniProt P04439-2 25-302 at identity 0.92))", "T2 construct": "whole, on cells; Empty MHC class I on the cell surface that is stabilized by an added peptide; the text gives HLA-A*24:02", "T2 MHC heavy": "not shown", "test": "MHC class I expression stabilization test on T2-A24 cells as in Example 2, flow cytometry"}}, "data": [{"binder": "B1", "values": [{"measurement": "mean fluorescence intensity (MFI) solvent ratio", "setting": "HLA-A*02:01 on T2 cells", "value": "2.2 ratio to solvent"}, {"measurement": "mean fluorescence intensity (MFI) solvent ratio", "setting": "[1]", "value": "3.8 ratio to solvent"}]}]}
